Measurements published in patent US20150315569A1, “METHOD FOR SCREENING A NUCLEIC ACID-PROGRAMMED SMALL MOLECULE LIBRARY” (The Board of Trustees of the Leland Stanford Junior …, priority 2014, published 2015).

Tests used:
[1] = molecular target: T1, protein kinase A (Mus musculus, UniProt P05132); assay: Selection for protein kinase A substrates from the DNA-programmed peptide library; gene/peptide enrichment by Illumina sequencing; format: biochemical, murine; settings: for LTFE: In (total fold enrichment) after four rounds: after four rounds of PKA substrate selection, kinase-treated vs control population; for Rank: position on list of peptides ranked by fold enrichment: calculated by summing reads over the 1296 genes encoding each peptide, peptide-DNA conjugates
T1 construct: purchased New England Biolabs P6000L
Experimental: Programmed library synthesis was carried out by a series of DNA-directed library splitting steps followed by chemical coupling steps. For the splitting steps, the ssDNA library was hybridized to an anticodon array overnight at 37° C. using a mesofluidic hybridization pump (see, e.g., Weisinger et al. (2012) PLoS ONE, 7, e28056). The anticodon array with bound DNA was then mounted into a plate adapter device which uses rubber gaskets to form an isolated liquid channel above and below each array feature. The adapter device was placed on top of a 384-well polypropylene filterplate loaded with 5 μl aliquots of DEAE sepharose resin. DNA was eluted from each feature of the anticodon array onto the DEAE resin in the corresponding well of the filterplate by application of a denaturing buffer (10 mM NaOH with 1 mM EDTA and 0.005% Triton X-100) followed by gentle centrifugation of the stack (140×g for 1 minute). The DEAE resin in the filter plate was then washed three times with 85 μl H2O and three times with 85 μl dry methanol. Peptide couplings were performed using EDC and HOAt in methanol and DMF (see, e.g., Halpin et al., (2004) PLoS Biology, 2, E174). Following the synthetic steps, the filterplate was placed on top of a 384-well polypropylene microtiter plate, and DNA was eluted from the DEAE resin by application of a high salt buffer (1.5 M NaCl, 50 mM NaOH, 1 mM EDTA, and 0.005% Triton X-100) followed by gentle centrifugation. The eluted DNA was pooled, concentrated and buffer exchanged into hybridization buffer using a centrifugal filter device with a 10,000 Da molecular weight cut-off (GE Healthcare). BSA and tRNA were added to 0.5 mg/ml each. The sample was diluted to 3 ml with hybridization buffer and applied to another anticodon array. Following the final step of the chemical synthesis, the eluted DNA was split by hybridization for 3 hours at 37° C. to a pair of anticodon columns derivatized with the VE001 and VE002 anticodon sequences. The two halves of the library were concentrated with n-butanol extractions, precipitated with isopropanol, and subjected to kinase-substrate/mock selections respectively.
Translated libraries were incubated in PKA buffer (NEB) overnight at 30° C. with 10,000 units of protein kinase A and 1 mM ATPγS. For the selection between the third and fourth generations, the incubation was shortened to 1 hour at 30° C. Mock selections were performed identically, with the enzyme replaced by a 50% glycerol solution. After incubation, the crude reactions were diluted 1.5-fold and adjusted to 100 mM NaOAc pH 5.2 and 25% dimethyl formamide. EZ-Link iodoacetyl-LC-biotin (Pierce Thermo Fisher Scientific, catalog #21333) was added to 600 μM. After 3 hours in the dark at 25° C., the enzyme-treated library was cleaned up by extraction with phenol: chloroform and n-butanol, and then precipitation with isopropanol. The library was resuspended in 27.5 μl bind buffer (10 mM Tris pH 7.4, 1 mM EDTA, 1 M NaCl), and 1.25 mg/ml tRNA and 0.25 mg/ml BSA were added. The library was then incubated with 15 μl of μMACS streptavidin microbeads (MiltenyiBiotec, 130-074-101) overnight at room temperature. The microbeads were purified and washed over MACS columns according to the manufacturer's instructions, and the purification process was repeated a second time. DNA was amplified directly off of the streptavidin beads by PCR.
25 pmol of amplified DNA was used as a template in a PCR reaction that appended Illumina adaptor sequences. The PCR product was quantified on an Agilent 2100 Bioanalyzer, and a 10 nM solution was submitted to the Stanford Functional Genomics Facility for sequencing using custom primers. Paired-end 150-bp reads were obtained on a MiSeqIllumina Sequencer.
The sequencing data were processed using scripts written in either AWK or MATLAB. […]

[2] = system: T2, RRSFV (SEQ ID NO: 2)
T2 sequence: RRSFV

[3] = system: T3, RMSF (SEQ ID NO: 7)
T3 sequence: RMSF

[4] = system: T4, RRSF (SEQ ID NO: 8)
T4 sequence: RRSF

[5] = system: T5, RRMTV (SEQ ID NO: 6)
T5 sequence: RRMTV

[6] = system: T6, Kemptide heptapeptide LRRASLG (SEQ ID NO: 10)
T6 sequence: LRRASLG

[7] = system: T7, RRASL (SEQ ID NO: 3)
T7 sequence: RRASL

[8] = system: T8, RRFSV (SEQ ID NO: 4)
T8 sequence: RRFSV

[9] = system: T9, RRMSV (SEQ ID NO: 5)
T9 sequence: RRMSV

[10] = system: T10, RRMS (SEQ ID NO: 9)
T10 sequence: RRMS

RMSF
LTFE: In (total fold enrichment) after four rounds [1]: 7.6
Rank: position on list of peptides ranked by fold enrichment ([1]; fourth generation): 147

RRASL (sythetic peptide)
LTFE: In (total fold enrichment) after four rounds [1]: 10.6
Rank: position on list of peptides ranked by fold enrichment ([1]; fourth generation): 20

RRFSV
LTFE: In (total fold enrichment) after four rounds [1]: 10.2
Rank: position on list of peptides ranked by fold enrichment ([1]; fourth generation): 33

RRMS
LTFE: In (total fold enrichment) after four rounds [1]: 3.0
Rank: position on list of peptides ranked by fold enrichment ([1]; fourth generation): 1846

RRMSV
LTFE: In (total fold enrichment) after four rounds [1]: 9.5
Rank: position on list of peptides ranked by fold enrichment ([1]; fourth generation): 51

RRMTV
LTFE: In (total fold enrichment) after four rounds [1]: 8.4
Rank: position on list of peptides ranked by fold enrichment ([1]; fourth generation): 95

RRSF
LTFE: In (total fold enrichment) after four rounds [1]: 6.3
Rank: position on list of peptides ranked by fold enrichment ([1]; fourth generation): 253

RRSFL
peptide enrichment in the fourth generation library (result in words) ([1]; reads of the 6^4 (1296) genes per peptide summed): most highly enriched peptide

RRSFV
LTFE: In (total fold enrichment) after four rounds [1]: 11.1
Rank: position on list of peptides ranked by fold enrichment ([1]; fourth generation): 7
median enrichment of the genes encoding the peptide ([1]; fourth generation, single genes (one codon per amino acid model)): 175,000 fold

catalytic subunit of murine cAMP-activated protein kinase A
Rel. kcat/Km (relative to Kemptide) [2]: 0.16
Rel. kcat/Km (relative to Kemptide) [3]: 0.0028
Rel. kcat/Km (relative to Kemptide) [4]: 0.05
Rel. kcat/Km (relative to Kemptide) [5]: 0.031
Rel. kcat/Km (relative to Kemptide) [6]: 1
Rel. kcat/Km (relative to Kemptide) [7]: 0.27
Rel. kcat/Km (relative to Kemptide) [8]: 4.1
Rel. kcat/Km (relative to Kemptide) [9]: 2.2
Rel. kcat/Km (relative to Kemptide) [10]: 0.028
